Reference: patent US20210371487A1
Where two headings read alike, the source gives them in different places.

Legend:
[1] = biological target: Factor X (UniProt P00742); assay: cell-based or functional assay
[2] = biological target: Factor X (UniProt P00742)
[3] = biological target: Factor X (UniProt P00742); assay: cell-based or functional assay; remark: listed apart in the source
[4] = biological target: Factor X, P00742
Factor X, P00742, sequence (P00742 whole entry, looked up): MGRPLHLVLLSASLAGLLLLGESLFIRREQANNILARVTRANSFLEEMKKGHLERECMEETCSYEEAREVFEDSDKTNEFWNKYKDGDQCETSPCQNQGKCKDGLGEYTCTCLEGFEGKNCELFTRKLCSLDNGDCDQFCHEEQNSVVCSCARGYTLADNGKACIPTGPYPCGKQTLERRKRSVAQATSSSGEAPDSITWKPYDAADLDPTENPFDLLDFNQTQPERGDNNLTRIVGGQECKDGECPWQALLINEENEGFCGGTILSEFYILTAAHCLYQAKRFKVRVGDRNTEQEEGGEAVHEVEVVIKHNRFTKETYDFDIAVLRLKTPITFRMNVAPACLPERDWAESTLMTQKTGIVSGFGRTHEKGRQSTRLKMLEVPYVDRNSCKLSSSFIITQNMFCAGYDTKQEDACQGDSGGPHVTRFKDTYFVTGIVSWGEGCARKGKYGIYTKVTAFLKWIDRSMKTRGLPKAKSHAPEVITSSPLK

## FIX-CTP3 (enzyme)
[1]
  Sample/plasma EC50 ratio (FIX chromogenic activity, BIOPHEN kit): 2

## FIX-CTP4 (enzyme)
[1]
  Sample/plasma EC50 ratio (FIX chromogenic activity, BIOPHEN kit): 5.35

## FIX-CTP5 (enzyme)
[1]
  Sample/plasma EC50 ratio (FIX chromogenic activity, BIOPHEN kit): 2.73

## FIX-CTP (from UniProt P00740 47-461) (enzyme)
[1]
  EC50, FIX chromogenic activity (BIOPHEN kit): 1.64 µg/mL

## FIX-CTP-CTP
[2]
  fold decrease in the enzymatic activity (chromogenic assay): An approximately 15-fold decrease in the enzymatic activity of the FIX-(CTP)2 harvest was observed.
  fold decrease in the enzymatic activity versus normal human pulled plasma (chromogenic assay): a 16.5-fold decrease versus normal human pulled plasma
  fold decrease in the enzymatic activity vs. recombinant FIX (chromogenic assay): An approximately 7-fold decrease in the enzymatic activity of FIX-CTP-CTP was observed vs. recombinant FIX

## FIX-CTP-CTP (enzyme)
[1]
  EC50, FIX chromogenic activity (BIOPHEN kit): 0.382 µg/mL
[3]
  EC50, FIX chromogenic activity (BIOPHEN kit): 0.505 µg/mL

## rhFIX (American Diagnostics) (from UniProt P00740 47-461) (enzyme)
[1]
  EC50, FIX chromogenic activity (BIOPHEN kit): 0.021 µg/mL
[3]
  EC50, FIX chromogenic activity (BIOPHEN kit): 0.0687 µg/mL

B1: rFVII-CTP (protein)
chain: AVFVTQEEAHGVLHRRRRANAFLEELRPGSLERECKEEQCSFEEAREIFKDAERTKLFWISYSDGDQCASSPCQNGGSCKDQLQSYICFCLPAFEGRNCETHKDDQLICVNENGGCEQYCSDHTGTKRSCRCHEGYSLLADGVSCTPTVEYPCGKIPILEKRNASKPQGRIVGGKVCPKGECPWQVLLLVNGAQLCGGTLINTIWVVSAAHCFDKIKNWRNLIAVLGEHDLSEHDGDEQSRRVAQVIIPSTYVPGTTNHDIALLRLHQPVVLTDHVVPLCLPERTFSERTLAFVRFSLVSGWGQLLDRGATALELMVLNVPRLMTQDCLQQSRKVGDSPNITEYMFCAGYSDGSKDSCKGDSGGPHATHYRGTWYLTGIVSWGQGCATVGHFGVYTRVSQYIEWLQKLMRSEPRPGVLLRAPFPSSSSKAPPPSLPSPSRLPGPSDTPILPQ
[4]
  FVII chromogenic activity (AssaySense Human FVII Chromogenic Activity Assay Kit): The addition of the CTP peptide at the C-terminal of the rFVII protein did not impair the FVII serine protease activity
